In patent publication US20240124607A1 (Merck Sharp & Dohme, published 2024):

Columns and labels:
Human CEACAM8 = molecular target: T1, Human CEACAM8 (human, UniProt P31997 35-320, limits assumed); assay: SPR, 37C, pH 7.4
T1 sequence (looked up): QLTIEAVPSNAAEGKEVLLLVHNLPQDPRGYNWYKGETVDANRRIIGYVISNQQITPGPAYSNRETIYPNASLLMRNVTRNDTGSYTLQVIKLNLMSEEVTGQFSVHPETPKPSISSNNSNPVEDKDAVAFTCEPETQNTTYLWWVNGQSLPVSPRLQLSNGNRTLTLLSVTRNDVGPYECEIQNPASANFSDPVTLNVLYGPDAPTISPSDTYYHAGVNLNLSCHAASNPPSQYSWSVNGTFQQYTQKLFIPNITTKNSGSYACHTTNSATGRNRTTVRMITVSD

human FcγRIIA H131 = molecular target: T2, human FcγRIIA H131 (human, UniProt P12318 34-218, limits assumed); assay: SPR, AB0621 on Protein A chip, 25C, pH 7.4; reference not named
T2 sequence (looked up): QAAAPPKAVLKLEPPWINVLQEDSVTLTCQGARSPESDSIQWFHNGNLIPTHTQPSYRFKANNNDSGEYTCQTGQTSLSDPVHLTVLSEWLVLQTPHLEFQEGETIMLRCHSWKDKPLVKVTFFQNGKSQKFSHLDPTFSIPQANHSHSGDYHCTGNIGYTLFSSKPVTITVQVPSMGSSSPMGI
Experimental: AB0621 was captured onto a Protein A chip (Cytiva, #29127556). Human FcγRs were titrated over captured AB0621 as 3-fold serial dilutions starting from 300 nM for FcγRI, 1000 nM for FcγRIIA R131 and H131, and 3000 nM for FcγRIIB and FcγRIIIB. Association was monitored for 120 sec and dissociation was monitored for 180 sec. Assays were run at 25° C. at pH 7.4. The surface of the chip was regenerated with 10 mM glycine pH 1.5 for 20 sec at 30 μL/min.

Cyno FcRn = Cyno FcRn (cynomolgus monkey, UniProt Q8SPV9 24-297; Q8SPW0 21-119, limits assumed); assay: SPR, anti-kappa capture, 25C, pH 6.0; pH 6.0
Cyno FcRn, sequence (Q8SPV9 24-297 limits assumed, chain 1 of 2): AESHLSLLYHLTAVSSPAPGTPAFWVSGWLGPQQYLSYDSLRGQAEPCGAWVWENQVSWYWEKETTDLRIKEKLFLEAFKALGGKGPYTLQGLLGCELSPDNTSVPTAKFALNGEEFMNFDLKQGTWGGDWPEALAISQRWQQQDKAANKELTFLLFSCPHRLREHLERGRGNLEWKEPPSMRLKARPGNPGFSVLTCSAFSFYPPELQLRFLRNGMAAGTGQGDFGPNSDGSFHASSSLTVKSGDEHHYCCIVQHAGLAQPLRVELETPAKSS
Cyno FcRn, sequence (Q8SPW0 21-119 limits assumed, chain 2 of 2): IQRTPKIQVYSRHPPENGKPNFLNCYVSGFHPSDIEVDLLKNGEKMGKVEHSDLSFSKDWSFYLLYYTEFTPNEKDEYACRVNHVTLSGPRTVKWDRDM
Experimental: (§1) Anti-kappa light chain antibody was immobilized onto a CM5 chip following a standard amine-coupling protocol. AB0621 was captured onto the chip and human or cynomolgus FcRn was titrated from 2000 nM as 2-fold serial dilutions. Association was monitored for 120 sec and dissociation was monitored for 180 sec. Assays were run at 25° C. at both pH 7.4 and pH 6.0. The surface of the chip was regenerated with two pulses of 10 mM glycine pH 1.5 for 20 sec at 30 μL/min followed by 10 mM NaOH for 20 sec at 30 μL/min.

Human FcRn = Human FcRn (human, UniProt P55899 24-297; P61769 21-119, limits assumed); assay: SPR, anti-kappa capture, 25C, pH 6.0; pH 6.0
Experimental: as §1

KD/KD ref (human FcγRIIA H131): 0.68 fold | Kd (Cyno FcRn): 310 nM | Kd (Human FcRn): 440 nM
B1: AB0621 F3' CEACAM5 TriNKET (bispecific antibody, human IgG1, kappa)
chain: DIVMTQSPDSLAVSLGERATINCKSSHSLLYGNFQNNYLAWYQQKPGQPPKLLIYWASTRESGVPDRFSGSGSGTDFTLTISSLQAEDVAVYYCQQYYSYPYTFGCGTKLEIKGGGGSGGGGSGGGGSGGGGSQVQLVQSGAEVKKPGASVKVSCKASGYTFTAYTIHWVRQAPGQCLEWMGYINPSSGYTEYNQKFKDRTTLTADTSISTAYMELSRLRSDDTAVYYCTREGGLLWFDYWGQGTLVTVSSGSDKTHTCPPCPAPELLGGPSVFLFPPKPKDTLMISRTPEVTCVVVDVSHEDPEVKFNWYVDGVEVHNAKTKPREEQYNSTYRVVSVLTVLHQDWLNGKEYKCKVSNKALPAPIEKTISKAKGQPREPRVYTLPPCRDELTKNQVSLTCLVKGFYPSDIAVEWESNGQPENNYKTTPPVLVSDGSFTLYSKLTVDKSRWQQGNVFSCSVMHEALHNHYTQKSLSLSPG
heavy: EVQLVESGGGLVKPGGSLRLSCAASGFTFSSYSMNWVRQAPGKGLEWVSSISSSSSYIYYADSVKGRFTISRDNAKNSLYLQMNSLRAEDTAVYYCARGAPIGAAAGWFDPWGQGTLVTVSSASTKGPSVFPLAPSSKSTSGGTAALGCLVKDYFPEPVTVSWNSGALTSGVHTFPAVLQSSGLYSLSSVVTVPSSSLGTQTYICNVNHKPSNTKVDKKVEPKSCDKTHTCPPCPAPELLGGPSVFLFPPKPKDTLMISRTPEVTCVVVDVSHEDPEVKFNWYVDGVEVHNAKTKPREEQYNSTYRVVSVLTVLHQDWLNGKEYKCKVSNKALPAPIEKTISKAKGQPREPQVCTLPPSRDELTENQVSLTCLVKGFYPSDIAVEWESNGQPENNYKTTPPVLDSDGSFFLYSWLTVDKSRWQQGNVFSCSVMHEALHNHYTQKSLSLSPG
light: DIQMTQSPSSVSASVGDRVTITCRASQGISSWLAWYQQKPGKAPKLLIYAASSLQSGVPSRFSGSGSGTDFTLTISSLQPEDFATYYCQQGVSFPRTFGGGTKVEIKRTVAAPSVFIFPPSDEQLKSGTASVVCLLNNFYPREAKVQWKVDNALQSGNSQESVTEQDSKDSTYSLSSTLTLSKADYEKHKVYACEVTHQGLSSPVTKSFNRGEC
binding result (Human CEACAM8): no binding (tested: up to 600 and 1200 nM)
